Test results published in publication PMC2935576 (The Journal of Cell Biology, 2010).

Assays:
[1] = target: Spc105p 800-829 (UniProt P53148); experiment: ITC, Spc105p peptide 1 with MIND complex; settings: reference: untreated MIND complex; sites S250
[2] = target: recombinant S. cerevisiae NDC80 complex (Ndc80p, Nuf2p, Spc24p, Spc25p), His-tagged on Ndc80p (S. cerevisiae, UniProt P40460;P33895;Q04477;P40014); experiment: ITC
[3] = target: T1, Mtw1p residues 1–220 (trypsin-resistant fragment) (S. cerevisiae, UniProt P39731 1-220); experiment: limited proteolysis
T1 sequence: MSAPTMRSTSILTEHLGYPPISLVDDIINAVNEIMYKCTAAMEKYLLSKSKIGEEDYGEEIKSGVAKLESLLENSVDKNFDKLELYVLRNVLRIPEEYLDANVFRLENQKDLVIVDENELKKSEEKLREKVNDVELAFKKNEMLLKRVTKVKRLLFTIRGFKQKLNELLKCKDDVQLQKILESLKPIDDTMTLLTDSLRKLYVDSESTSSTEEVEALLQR

[4] = target: T2, Dsn1p residues 103–412 (trypsin-resistant fragment) (S. cerevisiae, UniProt P40568 103-412); experiment: limited proteolysis
T2 sequence: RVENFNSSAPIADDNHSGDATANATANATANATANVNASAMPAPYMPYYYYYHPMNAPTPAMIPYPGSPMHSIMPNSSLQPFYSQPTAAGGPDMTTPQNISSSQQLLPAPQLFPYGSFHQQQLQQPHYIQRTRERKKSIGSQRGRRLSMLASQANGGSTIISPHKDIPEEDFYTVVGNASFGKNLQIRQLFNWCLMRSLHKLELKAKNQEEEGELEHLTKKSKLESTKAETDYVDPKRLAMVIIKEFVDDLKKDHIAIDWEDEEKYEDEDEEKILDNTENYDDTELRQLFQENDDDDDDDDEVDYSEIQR

[5] = target: T3, Dsn1p–Nsl1p heterodimer (S. cerevisiae, UniProt P40568;Q12143); experiment: AUC
T3 sequence 1: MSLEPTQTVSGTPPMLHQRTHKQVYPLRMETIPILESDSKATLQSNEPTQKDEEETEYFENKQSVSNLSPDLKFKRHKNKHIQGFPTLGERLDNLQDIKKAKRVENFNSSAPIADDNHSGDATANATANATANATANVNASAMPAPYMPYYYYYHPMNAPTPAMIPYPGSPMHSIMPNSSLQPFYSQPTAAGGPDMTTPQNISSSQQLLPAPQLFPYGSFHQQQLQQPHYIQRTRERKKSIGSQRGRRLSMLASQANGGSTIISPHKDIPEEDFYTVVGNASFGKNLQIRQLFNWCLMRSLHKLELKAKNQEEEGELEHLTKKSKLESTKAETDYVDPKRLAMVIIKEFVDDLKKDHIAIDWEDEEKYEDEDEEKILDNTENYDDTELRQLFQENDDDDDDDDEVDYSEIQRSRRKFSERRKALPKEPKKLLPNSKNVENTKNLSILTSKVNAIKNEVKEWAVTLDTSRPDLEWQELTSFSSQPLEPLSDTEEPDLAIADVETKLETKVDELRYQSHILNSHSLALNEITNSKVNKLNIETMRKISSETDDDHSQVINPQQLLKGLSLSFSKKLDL
T3 sequence 2: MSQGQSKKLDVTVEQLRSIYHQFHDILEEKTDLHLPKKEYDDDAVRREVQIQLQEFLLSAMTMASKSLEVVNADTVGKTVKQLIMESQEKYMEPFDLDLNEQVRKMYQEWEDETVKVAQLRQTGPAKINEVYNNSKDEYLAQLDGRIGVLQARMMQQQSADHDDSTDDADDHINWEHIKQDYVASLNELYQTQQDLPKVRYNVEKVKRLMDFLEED

Chain of recombinant S. cerevisiae NDC80 complex (Ndc80p, Nuf2p, Spc24p, Spc25p), His-tagged on Ndc80p (P40460 whole entry, chain 1 of 4, the tested form may be a part): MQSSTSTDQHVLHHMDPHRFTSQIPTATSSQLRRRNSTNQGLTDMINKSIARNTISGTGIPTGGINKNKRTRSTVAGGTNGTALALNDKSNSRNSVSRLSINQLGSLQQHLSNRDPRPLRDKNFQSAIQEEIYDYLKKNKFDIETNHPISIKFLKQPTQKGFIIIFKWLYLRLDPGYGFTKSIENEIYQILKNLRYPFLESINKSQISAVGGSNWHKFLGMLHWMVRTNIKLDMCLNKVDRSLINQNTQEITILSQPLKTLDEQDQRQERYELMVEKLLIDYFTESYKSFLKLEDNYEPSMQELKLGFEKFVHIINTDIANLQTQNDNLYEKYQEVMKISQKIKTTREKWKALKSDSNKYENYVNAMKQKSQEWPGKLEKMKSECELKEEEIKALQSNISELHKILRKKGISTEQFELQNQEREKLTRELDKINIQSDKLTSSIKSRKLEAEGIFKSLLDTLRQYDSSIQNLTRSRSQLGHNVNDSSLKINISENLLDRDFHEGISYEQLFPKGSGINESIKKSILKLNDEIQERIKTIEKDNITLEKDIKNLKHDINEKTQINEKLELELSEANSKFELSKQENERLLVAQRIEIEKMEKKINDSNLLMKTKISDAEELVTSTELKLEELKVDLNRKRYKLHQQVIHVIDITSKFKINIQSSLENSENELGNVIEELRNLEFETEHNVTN
Chain of recombinant S. cerevisiae NDC80 complex (Ndc80p, Nuf2p, Spc24p, Spc25p), His-tagged on Ndc80p (P33895 whole entry, chain 2 of 4, the tested form may be a part): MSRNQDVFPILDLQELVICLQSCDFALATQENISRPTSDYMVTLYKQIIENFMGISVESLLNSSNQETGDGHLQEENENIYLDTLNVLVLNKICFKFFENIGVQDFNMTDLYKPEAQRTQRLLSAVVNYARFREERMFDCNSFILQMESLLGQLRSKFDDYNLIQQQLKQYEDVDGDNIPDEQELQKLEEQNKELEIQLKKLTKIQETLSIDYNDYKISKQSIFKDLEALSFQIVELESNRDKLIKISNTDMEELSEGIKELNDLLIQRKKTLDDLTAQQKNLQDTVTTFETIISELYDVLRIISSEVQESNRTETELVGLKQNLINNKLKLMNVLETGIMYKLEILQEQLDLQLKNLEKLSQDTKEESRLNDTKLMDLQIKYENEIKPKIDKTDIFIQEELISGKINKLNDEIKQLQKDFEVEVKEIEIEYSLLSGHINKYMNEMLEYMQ
Chain of recombinant S. cerevisiae NDC80 complex (Ndc80p, Nuf2p, Spc24p, Spc25p), His-tagged on Ndc80p (Q04477 whole entry, chain 3 of 4, the tested form may be a part): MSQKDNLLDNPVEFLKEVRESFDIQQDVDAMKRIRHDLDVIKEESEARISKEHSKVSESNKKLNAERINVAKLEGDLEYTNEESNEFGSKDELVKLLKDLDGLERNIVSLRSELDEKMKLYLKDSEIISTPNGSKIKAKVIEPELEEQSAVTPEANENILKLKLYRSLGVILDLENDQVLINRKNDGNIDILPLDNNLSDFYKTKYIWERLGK
Chain of recombinant S. cerevisiae NDC80 complex (Ndc80p, Nuf2p, Spc24p, Spc25p), His-tagged on Ndc80p (P40014 whole entry, chain 4 of 4, the tested form may be a part): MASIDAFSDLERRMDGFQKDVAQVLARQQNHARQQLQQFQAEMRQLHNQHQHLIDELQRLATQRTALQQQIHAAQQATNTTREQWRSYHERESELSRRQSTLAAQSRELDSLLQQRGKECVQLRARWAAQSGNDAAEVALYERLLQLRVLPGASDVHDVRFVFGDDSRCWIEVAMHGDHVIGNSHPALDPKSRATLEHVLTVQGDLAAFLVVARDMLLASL

“Dsn1p (from UniProt P40568) Ipl1p-phosphorylated MIND complex (Dsn1p pS250)” was tested, and the “binding against the reference” value [1] was “same”.

B1: MIND complex phosphorylated on Dsn1p Ser250 by Ipl1p (complex)
chain 1: T3 sequence 1
chain 2: MSAPTMRSTSILTEHLGYPPISLVDDIINAVNEIMYKCTAAMEKYLLSKSKIGEEDYGEEIKSGVAKLESLLENSVDKNFDKLELYVLRNVLRIPEEYLDANVFRLENQKDLVIVDENELKKSEEKLREKVNDVELAFKKNEMLLKRVTKVKRLLFTIRGFKQKLNELLKCKDDVQLQKILESLKPIDDTMTLLTDSLRKLYVDSESTSSTEEVEALLQRLKTNGKQNNKDFRTRYIDIRTNNVLRKLGLLGDKEDEKQSAKPDARTQAGDIVSIDIEEPQLDLLDDVL
chain 3: MVNSHGIRYIRLKQVFNRALDQSISKLQSWDKVSSCFPQYVNSKQGAINVANCQRQLTEFWTELCQREFKEIMEERNVEQKLNELDELILEAKERYTDRDQDEVNKGPAIDELSSKELVECHLYSQRMHAIHEIDERLAKVNEMNDQLAQELKDLETQVEVEKNEIGKMYDEYLGSHTDQPANVLLVQSLNDMVLELKENY
chain 4: T3 sequence 2
modifications: phosphoserine at 250
B1: binds [2].

B2: Nnf1p (natural protein)
chain: B1 chain 3
B2: binds [3].

B3: Nsl1p (natural protein)
chain: T3 sequence 2
B3: binds [4].

B4: Mtw1p–Nnf1p heterodimer (complex)
chain 1: B1 chain 2
chain 2: B1 chain 3
With B4 the “stoichiometry N” value [5] was 1.
